Results as given in patent CN113045647A (NANJING LEGEND BIOTECH CO LTD, dated 2021).

Biological target: SARS-CoV-2-RBD(6×His融合蛋白，来自金斯瑞生物公司) (SARS-CoV-2, UniProt P0DTC2 319-541)
Assay: ELISA, E. coli expression supernatant on coated SARS-CoV-2-RBD His

B1: 人源Fab抗体AS182561 (Fab, E. coli expression supernatant) (Fab, V domains shown, not shown: large carriers)
VH: EVQLVESGGGLVQPGGSLRLSCAASGFNIYSSYMHWVRQAPGKGLEWVASISPSYSYTSYADSVKGRFTISADTSKNTAYLQMNSLRAEDTAVYYCARYSYYGMDYWGQGTLVTVSA
VL: DIQMTQSPSSLSASVGDRVTITCRASQSVSSAVAWYQQKPGKAPKLLIYSASSLYSGVPSRFSGSRSGTDFTLTISSLQPEDFATYYCQQPPWHGLITFGQGTKVEIK
- binding result: binds
